Measurements: patent publication US20070110748A1

What was measured:
[1] = molecular target: FnBP purified from S. aureus strain Newman (Staphylococcus aureus); test: competition ELISA on FnBP-coated wells; competitor anti-D320-33 F(ab')2 at 100 µg/ml
[2] = molecular target: FnBP purified from S. aureus strain Newman (Staphylococcus aureus); test: competition ELISA on FnBP-coated wells; competitor anti-D121-34 F(ab')2 at 100 µg/ml

Chain of Human plasma Fn, P02751 32-2296 (ligand) (P02751 other isoform, or with tags, fused parts or gaps limits assumed): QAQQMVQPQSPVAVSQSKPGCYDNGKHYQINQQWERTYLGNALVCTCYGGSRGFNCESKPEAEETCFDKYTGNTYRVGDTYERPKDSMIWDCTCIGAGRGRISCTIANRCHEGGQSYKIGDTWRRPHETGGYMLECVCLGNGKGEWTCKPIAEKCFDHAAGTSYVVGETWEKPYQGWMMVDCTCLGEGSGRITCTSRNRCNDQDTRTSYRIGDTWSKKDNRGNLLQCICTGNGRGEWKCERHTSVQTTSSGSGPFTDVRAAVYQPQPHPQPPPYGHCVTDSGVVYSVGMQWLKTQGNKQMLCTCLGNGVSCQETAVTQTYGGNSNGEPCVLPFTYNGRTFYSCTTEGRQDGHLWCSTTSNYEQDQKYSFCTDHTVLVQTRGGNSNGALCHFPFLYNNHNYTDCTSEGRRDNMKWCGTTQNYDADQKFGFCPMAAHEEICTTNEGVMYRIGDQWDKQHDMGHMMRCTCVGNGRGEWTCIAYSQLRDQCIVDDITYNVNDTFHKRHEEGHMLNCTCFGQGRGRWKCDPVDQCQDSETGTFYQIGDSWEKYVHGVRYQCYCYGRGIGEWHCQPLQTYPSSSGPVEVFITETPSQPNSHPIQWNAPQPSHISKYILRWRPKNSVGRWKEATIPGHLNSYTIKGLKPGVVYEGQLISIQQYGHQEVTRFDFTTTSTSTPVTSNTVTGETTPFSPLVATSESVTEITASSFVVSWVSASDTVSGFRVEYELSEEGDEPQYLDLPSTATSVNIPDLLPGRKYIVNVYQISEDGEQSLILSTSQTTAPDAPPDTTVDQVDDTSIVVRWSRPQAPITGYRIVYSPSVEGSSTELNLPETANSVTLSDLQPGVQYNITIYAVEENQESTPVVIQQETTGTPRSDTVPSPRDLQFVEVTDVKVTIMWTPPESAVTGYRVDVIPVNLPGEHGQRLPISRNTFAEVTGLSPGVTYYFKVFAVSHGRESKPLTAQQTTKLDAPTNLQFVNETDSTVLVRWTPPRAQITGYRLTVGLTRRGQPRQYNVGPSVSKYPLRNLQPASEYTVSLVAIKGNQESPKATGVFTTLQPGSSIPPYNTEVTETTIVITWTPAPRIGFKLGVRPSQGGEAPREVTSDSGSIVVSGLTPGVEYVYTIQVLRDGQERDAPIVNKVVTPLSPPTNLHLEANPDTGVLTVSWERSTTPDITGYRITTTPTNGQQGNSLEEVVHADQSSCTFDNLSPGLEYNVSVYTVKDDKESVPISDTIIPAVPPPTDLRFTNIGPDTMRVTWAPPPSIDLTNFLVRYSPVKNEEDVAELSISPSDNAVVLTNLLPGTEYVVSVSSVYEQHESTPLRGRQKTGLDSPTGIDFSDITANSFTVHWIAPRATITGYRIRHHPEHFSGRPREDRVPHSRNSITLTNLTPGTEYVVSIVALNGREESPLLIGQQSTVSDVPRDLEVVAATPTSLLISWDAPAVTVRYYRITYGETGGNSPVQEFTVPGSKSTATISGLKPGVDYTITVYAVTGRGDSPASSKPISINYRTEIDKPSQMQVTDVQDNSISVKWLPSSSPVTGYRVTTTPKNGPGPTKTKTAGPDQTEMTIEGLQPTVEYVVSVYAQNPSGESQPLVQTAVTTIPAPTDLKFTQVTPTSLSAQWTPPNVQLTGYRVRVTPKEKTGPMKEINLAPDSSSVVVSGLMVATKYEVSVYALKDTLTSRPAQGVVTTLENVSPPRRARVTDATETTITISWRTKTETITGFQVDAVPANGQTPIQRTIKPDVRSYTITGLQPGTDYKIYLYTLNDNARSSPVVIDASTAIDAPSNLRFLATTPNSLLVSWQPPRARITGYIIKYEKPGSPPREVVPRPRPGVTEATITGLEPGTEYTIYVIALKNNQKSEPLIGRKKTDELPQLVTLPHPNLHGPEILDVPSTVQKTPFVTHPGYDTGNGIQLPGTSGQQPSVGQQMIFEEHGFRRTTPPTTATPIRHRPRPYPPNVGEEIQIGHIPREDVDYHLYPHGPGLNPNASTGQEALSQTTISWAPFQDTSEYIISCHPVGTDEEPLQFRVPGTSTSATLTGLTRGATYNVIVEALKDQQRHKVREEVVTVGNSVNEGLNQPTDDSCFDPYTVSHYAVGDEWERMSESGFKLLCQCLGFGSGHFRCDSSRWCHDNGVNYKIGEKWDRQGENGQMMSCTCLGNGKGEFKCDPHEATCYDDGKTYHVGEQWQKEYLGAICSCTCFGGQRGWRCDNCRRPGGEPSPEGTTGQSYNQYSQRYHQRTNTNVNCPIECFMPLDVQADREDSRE

Work on “Human plasma Fn, P02751 32-2296 (ligand)” yielded a concentration of soluble Fn at which F(ab')2 recognition of FnBP was virtually eliminated [1] of 50 µg/mL and a concentration of soluble Fn at which F(ab')2 recognition of FnBP was virtually eliminated [2] of 50 µg/mL.
